This is an account of results in FireProtDB (doi:10.1073/pnas.84.13.4441).

The conditions of the series: Escherichia coli (strain K12), 25 °C, GdnHCl, CD, Potassium phosphate 20 mM, reversible: yes, whole UniProt chain shown.

B1: Tryptophan synthase alpha chain wild type, P0A877 (protein)
chain: MERYESLFAQLKERKEGAFVPFVTLGDPGIEQSLKIIDTLIEAGADALELGIPFSDPLADGPTIQNATLRAFAAGVTPAQCFEMLALIRQKHPTIPIGLLMYANLVFNKGIDEFYAQCEKVGVDSVLVADVPVEESAPFRQAALRHNVAPIFICPPNADDDLLRQIASYGRGYTYLLSRAGVTGAENRAALPLNHLVAKLKEYNAAPPLQGFGISAPDQVKAAIDAGAAGAISGSAIVKIIEQHINEPEKMLAALKVFVQPMKAATRS
Take B1: the unfolding free energy reads like this: (pH 7) 18.2 kcal/mol; (pH 9) 18 kcal/mol.
